Reference: article PMC5170556 (Molecular Biology of the Cell, 2016)

Assays:
[1] = molecular target: T1, C-terminally green fluorescent protein–tagged Bim1 (S. cerevisiae, UniProt P40013 1-344); test: AUC
T1 sequence (looked up): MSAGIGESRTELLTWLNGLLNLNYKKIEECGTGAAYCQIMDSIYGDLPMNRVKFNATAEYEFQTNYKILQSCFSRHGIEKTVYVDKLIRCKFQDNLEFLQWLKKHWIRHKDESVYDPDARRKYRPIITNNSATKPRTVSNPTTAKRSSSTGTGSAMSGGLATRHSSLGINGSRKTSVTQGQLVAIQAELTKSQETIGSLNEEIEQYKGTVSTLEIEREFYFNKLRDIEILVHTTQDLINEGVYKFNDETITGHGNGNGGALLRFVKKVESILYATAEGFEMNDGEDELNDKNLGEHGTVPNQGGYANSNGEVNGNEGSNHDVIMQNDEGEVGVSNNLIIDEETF

[2] = molecular target: T2, Bim1 (full-length) (S. cerevisiae, UniProt P40013 1-344); test: SEC-MALS
T2 sequence (looked up): T1 sequence (looked up)

stoichiometry N [1]: 1 Kar9 monomer per Bim1 dimer | stoichiometry N [2]: 1 Kar9 monomer per Bim1 dimer
B1: Kar9 (full-length) (natural protein, S. cerevisiae, UniProt P32526 1-644, looked up)
chain: MDNDGPRSMTIGDDFQENFCERLERIHNTLHSINDCNSLNESTTSISETLLVQFYDDLENVASVIPDLVNKKRLGKDDILLFMDWLLLKKYMLYQFISDVHNIEEGFAHLLDLLEDEFSKDDQDSDKYNRFSPMFDVIEESTQIKTQLEPWLTNLKELLDTSLEFNEISKDHMDTLHKIINSNISYCLEIQEERFASPIRHTPSFTLEQLVKLLGTHTETTEPKVPKFSPAEDILSRKFLNLKKNIPPIEKSLTDILPQRIVQFGHRNITNITTLQTILQKKYELIMKDYRFMNSEFRELKVELIDKRWNILFINLNHELLYILDEIERLQSKLLTTKYTKDITIRLERQLERKSKTVSKTFNIIYRALEFSLLDAGVASKTNELAQRWLNIKPTADKILIKSSASNKIATSKKKIPKPKSLGFGRPNSVIGTITQDFQERVAINEGDSNKTPENSTTVALKGKKLGKALLQKMNIKPATSPNSSNAINPFFDPESPNKGKLILSSVPPLPYDETDETTLRVSRGENEKSPDSFITSRHENKVQITETPLMAKNKSVLDIEKDKWNHYRSLPSRIPIYKDKVVKVTVENTPIAKVFQTPPTKITTPNSQVWVPSTRRRTRLRPPTPLSQLLSPREGRLDKTPTY
